Patent US20140004120A1 (published 2014)
Where a chain is given by its changes, count along the chain named.

T1: rsDR5 (recombinant human DR5 extracellular domain protein) (UniProt O14763 56-183)
T1 chain: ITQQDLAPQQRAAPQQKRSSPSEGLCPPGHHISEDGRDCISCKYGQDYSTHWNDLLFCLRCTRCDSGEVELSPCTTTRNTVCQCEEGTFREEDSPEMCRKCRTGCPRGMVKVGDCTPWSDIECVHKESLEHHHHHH

B1: hB273_H2-1-NE/hB273_L1-NE (antibody, V domains shown)
VH: EVQLVQSGAEVKKPGASVKVSCKASGYSFIGYFMNWMKQSPGMSLEWIGRFNPYNEDTFYNQKFKGKATLTVDKSTSTAYMELSSLRSEDTAVYFCARSAYYFDSGGYFDYWGQGTLVTVSS
VL: DIVMTQSPLSLPVTPGEPASISCRSSQSLVHSNENTYLHWYLQKPGQSPQLLIYKVSNRFSGVPDRFSGSGSGTDFTLKISRVEAEDVGVYYCSQSTHVPWTFGPGTKVEIKR
B2: hB273_H2-1-NE/hB273_L1-NL (antibody, V domains shown)
VH: B1 VH
VL: B1 VL with E34L
B3: hB273_H2-1-NE/hB273_L1-NF (antibody, V domains shown)
VH: B1 VH
VL: B1 VL with E34F
B4: hB273_H1/hB273_L2 (antibody)
heavy: not shown
light: DVVMTQTPLSLPVSLGEPASISCRSSQSLVHSNGNTYLHWYLQKPGQSPKLLIYKVSNRFSGVPDRFSGSGSGTDFTLKISRVEAEDVGVYFCSQSTHVPWTFGPGTKVEIKRTVAAPSVFIFPPSDEQLKSGTASVVCLLNNFYPREAKVQWKVDNALQSGNSQESVTEQDSKDSTYSLSSTLTLSKADYEKHKVYACEVTHQGLSSPVTKSFNRGEC
B5: hB273_H2/hB273_L2 (antibody)
heavy: not shown
light: B4 light
B6: hB273_H3/hB273_L2 (antibody)
heavy: not shown
light: B4 light
B7: hB273_H2/hB273_L3 (antibody)
heavy: not shown
light: B4 light with P105G
B8: hB273_H2/hB273_L1 (antibody)
heavy: not shown
light: B4 light with V2I, T7S, S14T, L15P, K50Q, F92Y
B9: hB273_H1/hB273_L3 (antibody)
heavy: not shown
light: B4 light with P105G
B10: hB273_H3/hB273_L3 (antibody)
heavy: not shown
light: B4 light with P105G
B11: hB273_H1/hB273_L1 (antibody, V domains shown)
VH: B1 VH with E1Q, M37V, K38R, S40A, S44G, I48M, E56G, K67R, A68V, F95Y
VL: B1 VL with E34G
B12: hB273_H3/hB273_L1 (antibody, V domains shown)
VH: B1 VH with M43K, E56G, Y80H, A97G
VL: B1 VL with E34G
B13: hB273_H2-1/hB273_L1 (antibody)
heavy: not shown
light: B4 light with V2I, T7S, S14T, L15P, K50Q, F92Y
B14: hB273_H2-2/hB273_L1 (antibody)
heavy: not shown
light: B4 light with V2I, T7S, S14T, L15P, K50Q, F92Y
B15: hB273_H2-3/hB273_L1 (antibody)
heavy: not shown
light: B4 light with V2I, T7S, S14T, L15P, K50Q, F92Y
B16: hB273_H2-5/hB273_L1 (antibody, V domains shown)
VH: B1 VH with E1Q, M43K, E56G, A97G
VL: B1 VL with E34G
B17: hB273_H1-1/hB273_L1 (antibody, V domains shown)
VH: B1 VH with E1Q, K38R, S40A, S44G, I48M, E56G, K67R, A68V, A97G
VL: B1 VL with E34G
B18: hB273_H2-4/hB273_L1 (antibody, V domains shown)
VH: B1 VH with E1Q, E56G, A97G
VL: B1 VL with E34G

Target: T1, rsDR5 (recombinant human DR5 …)
Test: Biacore

| Kd | Binder |
| --- | --- |
| 2.02 nM | B1 |
| 1.76 nM | B2 |
| 1.76 nM | B3 |

Target: T1, rsDR5 (recombinant human DR5 …)
Test: Biacore
Remark: another data set of the same source

| Kd | Binder |
| --- | --- |
| 6.53 nM | B4 |
| 4.47 nM | B5 |
| 2.19 nM | B6 |
| 5.4 nM | B7 |
| 4.36 nM | B8 |
| 6.04 nM | B9 |
| 2.15 nM | B10 |
| 5.45 nM | B11 |
| 2.4 nM | B12 |

Target: T1, rsDR5 (recombinant human DR5 …)
Test: Biacore
Remark: another data set of the same source

| Kd | Binder |
| --- | --- |
| 1.99 nM | B13 |
| 2.14 nM | B14 |
| 2.12 nM | B15 |
| 1.38 nM | B16 |
| 1.83 nM | B17 |
| 1.55 nM | B18 |
